Measured values reported in the supplement of paper PMC6757056.
± gives the standard deviation of the averaged measurements.

B1: library; a variant is named by its letters at N, in order (parent)
chain: GCUGUCACCGGUGUAUUACCCUAGUGGUCGACCGGUCUGAUGAGUCUNNNNNNAGACGAAACAGC

Experiments:
hypoxanthine [1] = variants of: B1; assay: FACS-Seq fitted mean relative fluorescence mCherry/BFP without ligand (log10 relative fluorescence); ligand: hypoxanthine (xanthine aptamer); higher = higher reporter protein expression; details: HEK293T, ligand present: no
In short: (§1)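 HEK293T libraries were made by lentiviral transduction with a ribozyme-switch mCherry reporter and an EF1α-BFP marker, enriched, and incubated with or without ligand for 48 h. Cells were sorted into 6 mCherry/BFP bins, and each bin's genomic DNA was PCR-amplified, barcoded and run on MiSeq. Fluorescence was derived by normal fitting of the bin counts. The fitted log10(mCherry/BFP) mean was scaled to five spiked-in control ribozymes.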

hypoxanthine [2] = variants of: B1; assay: normalized RNA/DNA level with ligand (relative to sTRSVctl = 100) (log10 (% of sTRSVctl)); ligand: hypoxanthine (xanthine aptamer); higher = less ribozyme self-cleavage, higher mRNA level; details: ligand concentration (+) RNA-Seq: 5 mM, HEK293T, reporter: mCherry (pCS4076), ligand present: yes
Procedure: (§2)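 Hammerhead (sTRSV) ribozyme switch libraries with a ligand aptamer grafted on stem I and a randomized N4-6 loop II, cloned into the 3' UTR of mCherry and transiently transfected into HEK293T cells; RNA-Seq 72 h post transfection with ligand added 1 h before transfection; RNA read count / plasmid DNA read count normalized to the non-cleaving sTRSVctl (x100), log10; sequences with >100 DNA reads. FACS-Seq: lentiviral library sorted into 6 bins after 48 h ligand, log-normal fit mean of mCherry/BFP scaled to controls. Printed sequences are partial switch sequences.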

hypoxanthine [3] = variants of: B1; assay: normalized RNA/DNA level without ligand (relative to sTRSVctl = 100) (log10 (% of sTRSVctl)); ligand: hypoxanthine (xanthine aptamer); higher = less ribozyme self-cleavage, higher mRNA level; details: HEK293T, reporter: mCherry (pCS4076), ligand present: no
Procedure: as §2

hypoxanthine [4] = variants of: B1; assay: FACS-Seq fitted mean relative fluorescence mCherry/BFP with ligand (log10 relative fluorescence); ligand: hypoxanthine (xanthine aptamer); ligand concentration (+) FACS-Seq: 5 mM; higher = higher reporter protein expression; details: HEK293T, ligand present: yes
In short: as §1

| Variant | FACS-Seq fitted mean (log10) (hypoxanthine [1]) | normalized RNA/DNA level with ligand (log10) (hypoxanthine [2]) | normalized RNA/DNA level without ligand (log10) (hypoxanthine [3]) | FACS-Seq fitted mean (log10) (hypoxanthine [4]) |
| --- | --- | --- | --- | --- |
| GAUGCU | -0.0807 ± 0.06 | 1.93 ± 0.063 | 1.867 ± 0.012 | 0.0649 ± 0.0092 |
| GAUGCG | 0.0728 ± 0.0046 | 1.87 ± 0.038 | 1.498 ± 0.0066 | 0.5658 ± 0.0024 |
| GAUGCC | 0.537 ± 0.022 | 1.96 ± 0.024 | 1.879 ± 0.018 | 0.5688 ± 0.0033 |
| UAUCCG | 0.207 ± 0.053 | 1.927 ± 0.019 | 1.71 ± 0.035 | 0.451 ± 0.096 |
| CAGGUA | -0.0109 ± 0.015 | 1.757 ± 0.016 | 1.57 ± 0.014 | 0.148 ± 0.04 |
| AAUUAC | 0.511 ± 0.13 | 1.96 ± 0.04 | 1.823 ± 0.016 | 0.516 ± 0.022 |
| AAUUAA | 0.435 ± 0.032 | 1.893 ± 0.0034 | 1.764 ± 0.0032 | 0.276 ± 0.14 |
| AAUAGC | 0.38 ± 0.038 | 1.924 ± 0.0031 | 1.734 ± 0.0066 | 0.681 ± 0.17 |
| AAUAGU | 0.36 ± 0.029 | 1.87 ± 0.027 | 1.61 ± 0.016 | 0.505 ± 0.041 |
| AAUAGA | 0.386 ± 0.012 | 1.89 ± 0.027 | 1.63 ± 0.052 | 0.44 ± 0.055 |
| AAUAGG | 0.109 ± 0.012 | 1.75 ± 0.046 | 1.28 ± 0.1 | 0.509 ± 0.025 |
| GAUAAA | 0.6 ± 0.041 | 1.919 ± 0.009 | 1.764 ± 0.0024 | 0.621 ± 0.12 |
| GAUAAU | -0.0227 ± 0.0069 | 1.909 ± 0.0021 | 1.78 ± 0.026 | 0.133 ± 0.006 |
| GAUAAG | -0.0234 ± 0.075 | 1.81 ± 0.027 | 1.36 ± 0.025 | 0.43 ± 0.02 |
| UAUAGU | 0.0206 ± 0.046 | 1.86 ± 0.029 | 1.57 ± 0.063 | 0.131 ± 0.037 |
| AAUCAU | 0.507 ± 0.019 | 1.9 ± 0.027 | 1.8365 ± 0.00062 | 0.523 ± 0.057 |
| AAUCAC | -0.698 ± 0.014 | 1.95 ± 0.04 | 1.849 ± 0.0051 | -0.545 ± 0.04 |
| UAGUAG | 0.218 ± 0.026 | 1.86 ± 0.04 | 1.49 ± 0.058 | 0.441 ± 0.097 |
| AAGUGG | 0.227 ± 0.067 | 1.57 ± 0.1 | 1.093 ± 0.0029 | 0.765 ± 0.065 |
| AAGUGA | -0.0239 ± 0.018 | 1.81 ± 0.02 | 1.47 ± 0.019 | 0.0676 ± 0.035 |
| AAGUGU | 0.111 ± 0.029 | 1.89 ± 0.046 | 1.571 ± 0.015 | 0.229 ± 0.011 |
| UAUCAA | 0.456 ± 0.02 | 1.91 ± 0.029 | 1.81 ± 0.021 | 0.414 ± 0.055 |
| UAUCAC | 0.6449 ± 0.00099 | 1.909 ± 0.012 | 1.86 ± 0.04 | 0.584 ± 0.023 |
| CAUGGG | 0.245 ± 0.013 | 1.86 ± 0.038 | 1.39 ± 0.038 | 0.603 ± 0.0033 |

| Variant | FACS-Seq fitted mean (log10) (hypoxanthine [1]) | normalized RNA/DNA level with ligand (log10) (hypoxanthine [2]) | normalized RNA/DNA level without ligand (log10) (hypoxanthine [3]) | FACS-Seq fitted mean (log10) (hypoxanthine [4]) |
| --- | --- | --- | --- | --- |
| CAUGGU | 0.331 ± 0.045 | 1.82 ± 0.02 | 1.755 ± 0.0046 | 0.455 ± 0.014 |
| UAGUGA | 0.153 ± 0.015 | 1.88 ± 0.033 | 1.57 ± 0.041 | 0.438 ± 0.039 |
| UAGUGU | 0.0263 ± 0.029 | 1.9 ± 0.065 | 1.45 ± 0.063 | 0.449 ± 0.12 |
| UAGUGG | 0.242 ± 0.04 | 1.861 ± 0.015 | 1.41 ± 0.019 | 0.511 ± 0.035 |
| GAGUGA | 0.22 ± 0.019 | 1.87 ± 0.066 | 1.453 ± 0.012 | 0.468 ± 0.065 |
| GAGUGC | 0.0552 ± 0.013 | 1.876 ± 0.005 | 1.501 ± 0.013 | 0.361 ± 0.045 |
| GAGUGU | 0.458 ± 0.014 | 1.86 ± 0.036 | 1.6 ± 0.062 | 0.69 ± 0.053 |
| GAGUGG | -0.253 ± 0.023 | 1.59 ± 0.12 | 1.13 ± 0.067 | 0.299 ± 0.042 |
| AAGUAU | 0.434 ± 0.12 | 1.895 ± 0.011 | 1.68 ± 0.019 | 0.301 ± 0.0055 |
| AAGUAA | 0.279 ± 0.049 | 1.86 ± 0.036 | 1.601 ± 0.012 | 0.457 ± 0.048 |
| AAGUAC | 0.425 ± 0.075 | 1.89 ± 0.065 | 1.647 ± 0.015 | 0.673 ± 0.064 |
| AAGUAG | -0.0595 ± 0.042 | 1.593 ± 0.013 | 1.1 ± 0.048 | 0.568 ± 0.023 |
| UAUCGC | 0.437 ± 0.11 | 1.947 ± 0.015 | 1.86 ± 0.047 | 0.239 ± 0.064 |
| UAUCGG | 0.2578 ± 0.0003 | 1.86 ± 0.024 | 1.47 ± 0.027 | 0.5888 ± 0.0049 |
| UAGGGU | 0.526 ± 0.034 | 1.84 ± 0.067 | 1.5 ± 0.027 | 0.632 ± 0.075 |
| UAGGGG | 0.118 ± 0.086 | 1.87 ± 0.037 | 1.5 ± 0.022 | 0.393 ± 0.018 |
| CAUAAU | 0.515 ± 0.078 | 1.88 ± 0.059 | 1.793 ± 0.011 | 0.559 ± 0.061 |
| CAUAAA | 0.609 ± 0.07 | 1.89 ± 0.038 | 1.735 ± 0.01 | 0.597 ± 0.038 |
| GAGUCA | 0.644 ± 0.03 | 1.906 ± 0.014 | 1.74 ± 0.056 | 0.707 ± 0.032 |
| CAGUAU | 0.355 ± 0.032 | 1.92 ± 0.031 | 1.61 ± 0.062 | 0.629 ± 0.094 |
| CAGUAG | 0.475 ± 0.064 | 1.91 ± 0.11 | 1.57 ± 0.026 | 0.586 ± 0.0075 |
| AAGGUA | 0.0361 ± 0.0026 | 1.767 ± 0.012 | 1.62 ± 0.021 | 0.162 ± 0.035 |
| AAGGUU | 0.941 ± 0.099 | 1.93 ± 0.021 | 1.7849 ± 0.0012 | 0.771 ± 0.19 |
| AAGGUG | -0.0635 ± 0.037 | 1.666 ± 0.0026 | 1.22 ± 0.024 | 0.37 ± 0.077 |

| Variant | FACS-Seq fitted mean (log10) (hypoxanthine [1]) | normalized RNA/DNA level with ligand (log10) (hypoxanthine [2]) | normalized RNA/DNA level without ligand (log10) (hypoxanthine [3]) | FACS-Seq fitted mean (log10) (hypoxanthine [4]) |
| --- | --- | --- | --- | --- |
| GAUCGG | 0.125 ± 0.0082 | 1.911 ± 0.012 | 1.59 ± 0.07 | 0.418 ± 0.018 |
| AAUCGG | 0.134 ± 0.047 | 1.837 ± 0.013 | 1.373 ± 0.006 | 0.58 ± 0.038 |
| UAUGGU | 0.514 ± 0.064 | 1.88 ± 0.036 | 1.527 ± 0.004 | 0.643 ± 0.029 |
| UAUGGC | -0.121 ± 0.027 | 1.92 ± 0.012 | 1.82 ± 0.022 | 0.322 ± 0.0061 |
| UAUGGG | 0.525 ± 0.08 | 1.857 ± 0.0095 | 1.41 ± 0.084 | 0.723 ± 0.072 |
| CAUUAA | 0.176 ± 0.0055 | 1.87 ± 0.071 | 1.712 ± 0.015 | 0.306 ± 0.052 |
| AAGUCA | 0.838 ± 0.069 | 1.9 ± 0.062 | 1.63 ± 0.062 | 0.608 ± 0.1 |
| AAGUCG | -0.00018 ± 0.0075 | 1.79 ± 0.11 | 1.187 ± 0.0065 | 0.661 ± 0.016 |
| AAGUCU | -0.27 ± 0.07 | 1.91 ± 0.046 | 1.84 ± 0.053 | -0.266 ± 0.014 |
| AAUCUG | 0.297 ± 0.034 | 1.85 ± 0.022 | 1.43 ± 0.1 | 0.656 ± 0.024 |
| AAUCUA | 0.651 ± 0.051 | 1.922 ± 0.014 | 1.8 ± 0.059 | 0.6869 ± 0.0045 |
| GAGGUG | 0.14 ± 0.057 | 1.78 ± 0.031 | 1.33 ± 0.025 | 0.551 ± 0.026 |
| AAUGUA | 0.284 ± 0.0037 | 1.9 ± 0.088 | 1.79 ± 0.047 | 0.204 ± 0.0096 |
| AAUGUU | 0.678 ± 0.033 | 1.9 ± 0.072 | 1.85 ± 0.038 | 0.605 ± 0.077 |
| AAUGUG | 0.203 ± 0.0069 | 1.82 ± 0.026 | 1.39 ± 0.05 | 0.573 ± 0.036 |
| UAUACU | 0.344 ± 0.0075 | 1.93 ± 0.05 | 1.84 ± 0.065 | 0.343 ± 0.066 |
| UAUACA | 0.641 ± 0.013 | 1.93 ± 0.053 | 1.854 ± 0.012 | 0.518 ± 0.019 |
| GAUACG | -0.036 ± 0.019 | 1.87 ± 0.035 | 1.488 ± 0.0049 | 0.37 ± 0.033 |
| GAUACA | 0.774 ± 0.022 | 1.93 ± 0.095 | 1.83 ± 0.0097 | 0.711 ± 0.11 |
| CAUGAC | -0.299 ± 0.099 | 1.937 ± 0.006 | 1.793 ± 0.017 | 0.254 ± 0.046 |
| CAUGAU | 0.296 ± 0.088 | 1.905 ± 0.0035 | 1.73 ± 0.032 | 0.333 ± 0.077 |
| CAUGAG | -0.0522 ± 0.019 | 1.924 ± 0.011 | 1.562 ± 0.0089 | 0.35 ± 0.039 |
| CAUGAA | 0.0197 ± 0.067 | 1.87 ± 0.026 | 1.68 ± 0.022 | 0.341 ± 0.056 |
